Reference: paper PMC2757915, “The Elongator Complex Interacts with PCNA and Modulates Transcriptional Silencing and Sensitivity to DNA Damage Agents” (PLoS Genetics, 2009)

Target: T1, Elongator complex purified from yeast cells using Elp5-TAP (S. cerevisiae (endogenous in W303 yeast …, UniProt Q06706 1-1349; P42935 1-788; Q02908 1-557; Q02884 1-456; P38874 1-309; Q04868 …)
T1 construct: Elp1, S. cerevisiae; Elp2, S. cerevisiae; Elp3 (Kat9), S. cerevisiae; Elp4, S. cerevisiae; Elp5, S. cerevisiae; Elp6, S. cerevisiae; Six-subunit complex; also called Elp3 complex; Elp1-Elp6 complex; copies: + + + + +
Experiment: co-IP; in vitro: 2.5 µg recombinant PCNA incubated with different amounts of Elp3 complex (purified with Elp5-TAP) in TBS with 0.01% NP-40 at 4°C for 2 hrs; precipitated with polyclonal anti-PCNA antibodies and Protein G Sepharose; Western blot for PCNA and CBP; pre-bleed sera as negative control
Settings: both partners purified

B1: recombinant PCNA (natural protein, S. cerevisiae, UniProt P15873 1-258, looked up)
chain: MLEAKFEEASLFKRIIDGFKDCVQLVNFQCKEDGIIAQAVDDSRVLLVSLEIGVEAFQEYRCDHPVTLGMDLTSLSKILRCGNNTDTLTLIADNTPDSIILLFEDTKKDRIAEYSLKLMDIDADFLKIEELQYDSTLSLPSSEFSKIVRDLSQLSDSINIMITKETIKFVADGDIGSGSVIIKPFVDMEHPETSIKLEMDQPVDLTFGAKYLLDIIKGSSLSDRVGIRLSSEAPALFQFDLKSGFLQFFLAPKFNDEE
notes: PCNA, encoded by POL30, S. cerevisiae; expressed from a plasmid in E. coli; No tag is named; purified by conventional chromatography; source: E. coli BL21(DE3), purified (Q-Sepharose, hydroxyapatite, Superdex 200)
- binding result: binds
